From patent US12564623B2, “Methods and compositions for treating cancer” (The University of Chicago, priority 2017, dated 2026)
“Also recorded” adds a separate entry of the source.

Experiments:
[1] = biological target: T1, CD95 (Homo sapiens, UniProt P25445); conditions: Strand et al., Oncogene, 2004; cited from earlier work
T1 sequence (P25445 26-335): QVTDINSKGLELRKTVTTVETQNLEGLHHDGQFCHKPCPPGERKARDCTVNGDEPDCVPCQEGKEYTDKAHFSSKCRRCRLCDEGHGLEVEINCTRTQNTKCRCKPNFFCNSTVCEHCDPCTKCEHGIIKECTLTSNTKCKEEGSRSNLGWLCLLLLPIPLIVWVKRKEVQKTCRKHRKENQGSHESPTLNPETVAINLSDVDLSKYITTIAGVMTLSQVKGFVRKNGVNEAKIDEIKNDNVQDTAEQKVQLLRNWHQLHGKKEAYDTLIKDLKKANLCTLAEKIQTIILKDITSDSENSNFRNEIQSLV

[2] = biological target: T1, CD95; assay: Recombinant CD95 degradation, SDS-PAGE and coomassie blue; assay type: biochemical; parameters: Recombinant proteins (1 μg) corresponding to full length CD95 (FL-CD95); conditions: purified CD95
Method: ELANE lowers CD95 levels in cancer cells and reduced CD95 levels are associated with apoptosis. (FIG. 8A) Recombinant proteins (1 μg) corresponding to full length CD95 (FL-CD95), N-terminal domain of CD95 (amino acids 1-173; N-CD95), or C-terminal domain of CD95 (amino acids 157-320; C-CD95) were inbuated with ELANE (0.05 μg) or vehicle (Veh) for 2 hrs at 37° C. Degradation was assessed by SDS-PAGE followed by coomassie blue staining. […] (FIG. 8C) Cancer cells were treated with ELANE (50 nM) for 1 hr, fixed in 10% formalin, and stained with N- or C-terminal specific anti-CD95 antibodies (green). Hoechst 33342 solution was used for nuclear staining (blue). Images were taken under 40×.
ELANE selectively cleaves the C-terminal domain of CD95. The CD95 pathway is essential for the survival of a wide range of cancer cells, but largely dispensable for normal cell survival (Adachi et al., Nat. Genet., 1995; Karray et al., J. Immunol., 2004). CD95 function can be modulated by proteolysis (Strand et al., Oncogene, 2004). To test CD95 involvement in ELANE mediated cell killing ELANE (0.05 μg) was incubated with 1 μg recombinant human C-terminal (aa. 157-320) or N-terminal (aa. 1-173) CD95 for 2 hrs at 37° C. Degradation was assessed by SDS-PAGE followed by staining with coomassie blue. C-terminal domain cleavage. N-terminal domain cleavage. Cancer cells were treated with ELANE (50 nM) for 1 hr, fixed in 10% formalin, and stained with N- or C-terminal specific anti-CD95 antibodies. Hoechst 33342 solution was used for nuclear staining. Images were taken under 40×. […] Mel888 cancer cells were treated with ELANE (50 nM) for various times, and CD95 degradation was assessed by western blot analysis with a C-terminal specific anti-CD95 antibody.
(§1) Other serine proteases cleave the C-terminal domain of CD95, and the ability to cleave the C-terminal domain is associated with cancer cell killing. (FIG. 12A) Full length recombinanat CD95 protein was incubated with various serine proteases (human ELANE (80 nM), PR3 (80 nM), CSTG (80 nM), PPE (80 nM), mouse ELANE (80 nM), rat ELANE (500 nM), GZMB (80 nM), or Trypsin (250 nM)), or other types of proteases (CTSC (80 nM); or MMP7 (80 nM), MMP9 (80 nM), CTSD (80 nM) not shown) at 37° C. for 2 hours. Degradation was assessed by SDS-PAGE followed by coomassie blue staining. (FIG. 12B) MDA-MB-231 cancer cells were incubated with various proteases for 24 hrs. Cell viability was assessed by Calcein AM staining.

[3] = test system: MDA-MB-231 cells; assay: Cancer cell killing, Calcein AM staining; assay type: cell-based, human
Method: Approach to identify the factor(s) mediating selective killing. A quantitative cancer cell killing assay was developed to track the bioactive factor(s). MDA-MB-231 cells were treated with various doses of PMN media and cell viability was assessed by Calcein AM live cells fluorescence staining. […] (FIG. 3B) PMN media was passed through a 0.22 μm filter, and protein concentration and killing activity on MDA-MB-231 cancer cells was measured in both pre- and post-filter solutions. […] ELANE and ECP levels in PMN media pre- and post-filtration were quantified by mass spectrometry (spectral counts).
To determine if ELANE and/or ECP were responsible, the inventors (1) immuno-depleted ELANE or ECP from PMN media; (2) treated cancer or normal cells with purified native ELANE or ECP from commercial sources. (FIG. 6A) ELANE or ECP were depleted from PMN media by immunoprecipitation; depletion was confirmed by western blotting. PMN media pre-depletion=Orig. and post-depletion=FT. Non-specific IgG was used as a control. (FIG. 6B) MDA-MB-231 cells or human monocyte-derived macrophages (HMDMs) were treated with purified native ELANE or ECP at various doses for 24h, and killing was assessed by Calcein AM staining. (FIG. 6C) MDA-MB-231 cells and HMDMs were treated with levels of ELANE (0.25 μg/mL) or ECP (0.05 μg/mL) that were present in the PMN media, alone or in combination for 24 hrs, and killing was examined by Calcein AM staining.
High doses of ECP or ELANE can kill cancer cells. The inventors sought to determine whether adding purified human ECP (Lee Biosolutions), human ELANE (Abcam), human DEFA1 (Abcam), human ANXA6 (R&D Systems) or human CASP3 (Abcam) individually could kill cancer cells without killing non-cancer cells. Increasing doses of each protein were added to MDA-MB-231 cells for 5h or human monocyte-derived macrophages (HMDMs) for 24 h and cell viability was determined by Calcein-AM.
ELANE and ECP synergize to selectively kill cancer cells. MDA-MB-231 and human monocyte-derived macrophages (HMDMs) were treated with levels of ELANE (0.25 μg/mL) or ECP (0.05 μg/mL) that were present in the PMN media, alone or in combination for 24 hrs. killing was examined by Calcein AM staining.
Combining chemotherapeutics and neutrophil conditioned media enhances the killing of human triple negative breast cancer cells. MDA-MB-231 cells were treated with neutrophil conditioned media (Neu-CM; 4 μg/mL), doxorubicin (DOX; 0.3 μM), or paclitaxel (PTX; 3 nM) for 4h, individually or in combination, and cell viability was assessed by Calcein-AM.
as §1
(FIG. 13A) MDA-MB-231 cancer cells were treated with various doses of purified native ELANE or purified native porcine pancreatic elastase (PPE) for 6 h, and killing was assessed by Calcein AM staining. (FIG. 13B). Purified native ELANE or purified native PPE was incubated with different concentrations of alpha-1-anti-trypsin (A1AT) for 15 mins. Catalytic activity was measured using a chromogenic substrate assay. Cancer cell killing capability was determined by treating MDA-MB-231 cancer cells with ELANE or PPE in the presence or absence of A1AT for 6h, followed by Calcein AM staining. (FIG. 13C) Catalytic activity was measured using a chromogenic substrate assay. […]

[4] = biological target: alpha-1-anti-trypsin (A1AT) (Homo sapiens, UniProt P01009); assay: Inhibition of elastase activity and killing by A1AT or FBS; assay type: biochemical; conditions: 15 mins, killing 6 h
Method: (FIG. 13A) MDA-MB-231 cancer cells were treated with various doses of purified native ELANE or purified native porcine pancreatic elastase (PPE) for 6 h, and killing was assessed by Calcein AM staining. (FIG. 13B). Purified native ELANE or purified native PPE was incubated with different concentrations of alpha-1-anti-trypsin (A1AT) for 15 mins. Catalytic activity was measured using a chromogenic substrate assay. Cancer cell killing capability was determined by treating MDA-MB-231 cancer cells with ELANE or PPE in the presence or absence of A1AT for 6h, followed by Calcein AM staining. (FIG. 13C) Catalytic activity was measured using a chromogenic substrate assay. Cancer cell killing capability was determined by treating MDA-MB-231 cancer cells with ELANE or PPE in the presence or absence of FBS for 6 h, followed by Calcein AM staining.
Elastase activity for purified native ELANE or purified native PPE at various dose were measured. It's corresponding killing ability was also tested on MDA-MB-231 cancer cells. Killing was assessed 6 hrs after treatment by Calcein AM staining. […] Killing was assessed 6 hrs after treatment by Calcein AM staining. […] Killing was assessed 6 hrs after treatment by Calcein AM staining.

Sequence of alpha-1-anti-trypsin (A1AT) (P01009 25-418, species assumed): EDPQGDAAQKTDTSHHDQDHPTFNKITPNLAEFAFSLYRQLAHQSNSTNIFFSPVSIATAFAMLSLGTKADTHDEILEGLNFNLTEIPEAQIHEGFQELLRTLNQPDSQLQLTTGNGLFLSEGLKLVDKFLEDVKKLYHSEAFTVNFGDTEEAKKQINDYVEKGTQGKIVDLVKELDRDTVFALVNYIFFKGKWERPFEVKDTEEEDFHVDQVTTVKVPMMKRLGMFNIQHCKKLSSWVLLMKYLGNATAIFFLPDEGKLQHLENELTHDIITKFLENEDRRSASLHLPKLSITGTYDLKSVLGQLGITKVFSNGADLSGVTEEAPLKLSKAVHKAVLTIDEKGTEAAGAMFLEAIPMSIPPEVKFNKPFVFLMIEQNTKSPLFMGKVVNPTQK

Substance	cleavage of CD95 [1]	cleavage of purified CD95 [2]	cancer cell killing by proteases [3]	toxicity to cancer cells, ELANE versus PPE ([3]; various doses, 6 h)	susceptibility to inhibition by serine protease inhibitors [4]
MMP7: protease previously shown to cleave the extracellular N-terminal domain of CD95	cleave the extracellular N-terminal domain of CD95				
porcine pancreatic elastase [PPE]		cleaved purified CD95 with an identical degradation pattern to ELANE	killed cancer cells	equally toxic to cancer cells	more resistant to inhibition by serine protease inhibitors; also recorded: less susceptibility to alpha 1 anti-trypsin (A1AT) or serum blocking
